Experimental data as given in patent US20130189255A1, “FUSIONS AND CONJUGATES OF INSULINOTROPIC AGENTS” (GLAXO GROUP LIMITED, priority 2008, published 2013).

Assay: Thermal denaturation by differential scanning calorimetry (DSC)
Assay type: physicochemical
Conditions: 1 mg/ml, 20 mM citrate pH6.2, 100 mM NaCl, 180° C./hour, non-2-state model
Experimental: Protein was dialysed overnight into 20 mM citrate pH6.2, 100 mM NaCl, filtered and then prepared at concentration of 1 mg/ml as determined by absorbance at 280 nm. Filtered dialysis buffer was used as a reference for all samples. DSC was performed at a heating rate of 180° C./hour. Before each sample a solution of 1% decon, and then buffer were injected to clean the cells and to provide instrumental baseline. Obtained traces were analysed using Origin 7 Microcal software. The DSC trace obtained from the reference buffer was subtracted from the sample trace. Precise molar concentration of the sample was used for calculations (performed automatically by Origin). Baseline setting for both upper and lower baselines linear regions before/after transition were selected and connected using cubic connect function. The resulting graph is fitted to non-2-state model, generating apparent Tm, and ΔH/ΔHv values.

With lysozyme the appTm was 76.2 °C.
